Source: the supplement of paper PMC12764529
± gives the half width of the 95% confidence interval.

Test: folding stability dG unfold from chymotrypsin proteolysis; higher = more stable
How it was run: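 How resistant each design was to proteolysis was captured as K50, inferred by Bayesian fitting of sequencing counts. Unfolding free energy was then derived relative to a sequence-predicted unfolded-state K50 and a shared folded-state K50, per protease or combined. Digestion used trypsin and chymotrypsin at 11 threefold-diluted concentrations plus a no-protease condition, on mini-proteins under 80 residues without cysteine in a PA-tagged cDNA display construct. Designs were kept only when AlphaFold2 dimer inter-PAE was above 15.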

Sequence	folding stability dG unfold [kcal/mol]
SAGGSAGGSAGMKSTVTQPGDTWTITITDPETGEVTTYTLTPAQLGELAASSRPVAVAPGSAGGSAGGSAGG [r11_741_JUSTAS]	1.5 ± 0.086
SAGGSAGGSAGPITYRLEIRYEIERIEVRVYPGPEGPLVGEFRIEVRLEVRVEALPPEETSAGGSAGGSAGG [r11_24_TrMRF]	4.88 ± 0.12
SMSMEEAMEWAEENPDRPVIFINPEDWYIMIYNPKKGKMEMRPITSPEEALEELDDENIDRIYIVPADEISA [r9_775_TrROS]	2.31 ± 0.061
SKPILKIKINIPVLKDKNGKEIIPSPNDVLAALEKLGIPVDKAEITKIGKNTIPILILVDLVDGKAYVKDSA [r9_225_TrMRF]	0.539 ± 0.054
SAGGSEVETVKVKIKVKIDGKVYEVEAEVEVFTDEDGRKVLRITLPDGRVVEIPLEDADKIEEIEVSAGGSA [r2_297_TrROS_Hall]	4 ± 0.11
SAGGSAGGRFTVQFRVPGTLEEAREKAEEIAENLPPNFKDVEVDIEPHPKNGWIRVEVQIKMKKSAGGSAGG [r6_164_TrROS]	1.07 ± 0.16
SAGGSAGGSAGLFIPETGLLVVYDPAPGTLHVFRITGGDGLEIEPVGEVEVDPDNPELGTAFSAGGSAGGSA [r18_448_TrMRF]	0.464 ± 0.16
SAGGSAGGSAGGKKYKIKVYVKDKKTKKWKKIKEIEVDTKEEALEAIKKLPPNYEVKIVPSAGGSAGGSAGG [r7_307_TrROS_Hall]	5.04 ± 0.068
SAGGSAGGATTEINLPLKVPGSGVTITKMTYDPNKDVYFVTATFPDGTKKTIKVKSLEELKKLLSAGGSAGG [r6_548_JUSTAS]	2.52 ± 0.046
SAGGSAGGSAGGSMVIRNENGYLIEVKTEVVVDEETKKKYVKTEIRIYKEGEEKELPEESAGGSAGGSAGGS [r4_48_TrROS_Hall]	1.13 ± 0.1
SKMKVIKTFENKETGEKIVIVKDEKTKKYYIFIYNKDGELVEKIEVEPGETITLPNGKTITIKEGDVIEFSA [r9_340_TrROS_Hall]	4.24 ± 0.071
SAGGSAGGSAGGPWYVRIEYTPPNGNKETFIIPSPEEIDEWAEPFGVPVKIEPIPPGDPISAGGSAGGSAGG [r7_456_TrROS]	0.604 ± 0.1
SAGGSAGGVERIKKLLEELGAEVVKVEKLENGKTLIYIKVKSEEQREALKALLPEEDIEIIEPESAGGSAGG [r6_83_TrROS_Hall]	4.47 ± 0.17
SAGGSAGGSAEPPPLVVVTEVRTITVEIDLDDLSEEEREALENLDTVTITVTRVVVVPREDLSAGGSAGGSA [r18_127_TrROS_Hall]	1.39 ± 0.22
SAGGSAGGSAGGSAMTLLSEEELPDGSRRVLMRFPDGTRMELTVHPDGSVEERVTPPAASAGGSAGGSAGGS [r4_483_JUSTAS]	2.904 ± 0.021
SAGGSAGGSAGMKIKTKNGEVIEIKVDKKTGKIEITFPDGKKITIDAPNLTIEDIKKLLESAGGSAGGSAGG [r11_729_TrMRF]	2.34 ± 0.047

Sequence	folding stability dG unfold [kcal/mol]
SAGGSAMVVTVPASSLTPESIRALARENPGPVELVFPEEGRRVTVEVRGDGVVRVEEHPLDPAELASAGGSA [r15_751_JUSTAS]	-0.536 ± 0.1
SAGGSKMPPGYKMIPIEIPFRTPEDLEQAINFAEELAREGFTIIDIDVEIPEGDNYRVEFHIMLPYSAGGSA [r2_350_TrROS]	2.6 ± 0.048
SMTTRESTIDASIPGYTVSKVSVTTLPGGERKITITLPSGKVLVLSTPADPALVPLTVTSEFSPEEVAAKSA [r9_1075_JUSTAS]	0.0702 ± 0.097
SAGGSALRIPPGEKIKVRNPDNGKPFEFKVTNWQMNPNGNAYFQVEMTSDGKKVKWPIPLDDIEVVSAGGSA [r15_62_TrROS]	0.358 ± 0.37
SAGTREQVKAIAREIANEIWDTFPDMRGQKFKVKIKVEPEPNGWVRVKVTIQFPGGVQYTFPIWIPVESAGG [r19_194_TrROS]	4.4 ± 0.23
SAGGPMKVKVTLIVRDKETGEWKEVEREMTLDELRELLASLPPDAEVFVKIEVDGKTVTLSLEELKALSAGG [r13_254_TrROS_Hall]	4.32 ± 0.097
SAGGSAMKVVFYGDEASQKEIAEKAKKEGIEYEAYPGSREEILAYVKENYPDVKMIVYPEGKEYLISAGGSA [r15_712_JUSTAS]	0.094 ± 0.18
SMKILNDPNIKKVIPVFLMLMSPEEFKKLAEKLANGIKKELEEKGFPIPKDIEIKIIPFKSPEELKKALKSA [r9_204_TrMRF]	2.31 ± 0.11
SAGGSAGGSAATKQITYTPPGSNRTYSFTATLTEEDPVTGRKLLELTLPDGTPITLPEGELGSAGGSAGGSA [r18_334_JUSTAS]	0.0349 ± 0.08
SAGGSAGGSAGGSITITTEPLPSGGRRVTVTLPGSSVVLELEFSPDETEEEVRAAVEAASAGGSAGGSAGGS [r10_825_JUSTAS]	2.12 ± 0.06
SAGGSAGGSAGGLRAKIVEIKEVKVKKLYKDPETNEWYEEEKTVKVIKIKIEPAKPGEKISAGGSAGGSAGG [r17_530_TrROS_Hall]	1.14 ± 0.044
SAGGSAGGSAGGKTLTLVFKTKEEAEEAAKKLGFKKVEVKEFKNEDGEKYLVVKIELKPSAGGSAGGSAGGS [r10_494_TrROS_Hall]	3.1 ± 0.047
SSSVVESSYDPSTGTLTVTVSYDFPPAPPAAATSSTTPVGSNSYTGSGSYTSPAGASSLSSTATGPPTLSSA [r9_780_JUSTAS]	1.15 ± 0.054
SAGGSAGGSPMKIEAVELEDGTVAYRLEDGTVLLVTKNEDGTYTVKVFKNGKLVEEKEIKLPPSAGGSAGGS [r12_451_TrROS_Hall]	3.277 ± 0.03
SAGLKVEIFPMDGTEQTIPIPAEDADPLVDEFQDNGFKVDNVEVDPDGEVWIPIKFPNGRPWMIEIDWESAG [r5_645_TrROS]	-0.0946 ± 0.31
